± gives the uncertainty stated by the source.
Assay: protein stability index of a GFP-peptide fusion (yeast GPS) (PSI 1-4); higher = more stable; sorted into four equal gates, so the index is relative within each strain
Method in brief: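 Yeast carrying a pooled library were grown to mid-log phase in leucine-free medium. Each library plasmid expresses Cherry and has a tiled 17-residue yeast protein peptide fused downstream of GFP. Cells were sorted into four equal gates by GFP/Cherry ratio, and plasmids from each gate were PCR-amplified, Illumina-sequenced and assigned to strains by barcode. Summing, across gates, the read frequency times the gate number gave each peptide's protein stability index.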

| Sequence | protein stability index (doa10∆) | protein stability index (pdr5∆) | protein stability index (san1∆) | protein stability index (ubr1∆) |
| --- | --- | --- | --- | --- |
| RYRLLSDVSDFEGWGHE [RPN1] | 2.63 ± 0.12 | 3.35 ± 0.1 | 3.07 ± 0.09 | 2.83 ± 0.12 |
| RYSNLVCKKADVDLHKR [RPS18A] | 3.05 ± 0.092 | 3.38 ± 0.096 | 3.58 ± 0.13 | 2.95 ± 0.083 |
| RYVAGVQQRYTQSGGVR [PRE6] | 2.84 ± 0.23 |  |  |  |
| SAAASESDVAKQLASFG [RPL16B] | 2.76 ± 0.048 | 2.83 ± 0.042 | 2.44 ± 0.057 | 2.42 ± 0.027 |
| SAAGMTAAIDSVVSQIE [FAS1] | 3.49 ± 0.23 | 3.15 ± 0.11 | 3.04 ± 0.24 | 2.81 ± 0.11 |
| SAAMSIDKLSDVVMKAT [PRP8] | 2.46 ± 0.048 | 2.6 ± 0.046 | 2.45 ± 0.047 | 2.37 ± 0.042 |
| SAASIPPQQTYHFPIFN [RPN4] | 2.55 ± 0.044 | 2.83 ± 0.045 | 2.52 ± 0.035 | 2.68 ± 0.031 |
| SADREIQRTLMELLTQM [RPT4] | 2.93 ± 0.12 | 3.16 ± 0.1 | 3.27 ± 0.087 | 3.02 ± 0.095 |
| SALQQIMYQQMLKYRRL [SNF2] | 1.51 ± 0.045 | 1.43 ± 0.036 | 1.44 ± 0.091 | 1.35 ± 0.029 |
| SATFLRIVGSELIQKYL [RPT2] | 1.41 ± 0.066 | 1.46 ± 0.071 | 1.18 ± 0.13 | 1.28 ± 0.051 |
| SAVVGPNGSGKSNVIDS [SMC4] | 3.13 ± 0.049 | 2.87 ± 0.043 | 3.06 ± 0.06 | 2.84 ± 0.033 |
| SCAIHARIVRVRSREDR [RPS26A] | 2.41 ± 0.14 | 1.39 ± 0.11 | 1.4 ± 0.18 | 2.62 ± 0.089 |
| SDDDNIGQSEELSDKEI [ISW2] | 3.31 ± 0.1 | 3.44 ± 0.09 | 3.31 ± 0.08 | 3.41 ± 0.12 |
| SDKIPYVAPTKKEYIEL [SRB4] | 2.77 ± 0.1 | 2.7 ± 0.1 | 2.32 ± 0.11 | 2.8 ± 0.12 |
| SDLINKDLVKNNVSFNA [FAS1] | 2.61 ± 0.068 | 2.58 ± 0.074 | 1.62 ± 0.11 | 2.26 ± 0.053 |
| SDPVCLFVCNKDPDVPL [POP3] | 1.91 ± 0.053 | 2.35 ± 0.075 | 2.31 ± 0.084 | 2.52 ± 0.081 |
| SDRREHDEKLSDELHNQ [LIN1] |  | 2.56 ± 0.18 | 3.19 ± 0.16 | 2.89 ± 0.16 |
| SDSIEKIVEIDRHIGCA [PUP2] |  | 3.11 ± 0.24 | 2.74 ± 0.13 | 2.82 ± 0.19 |
| SDSYKVSLQNFSSSVSL [RRP40] | 2.69 ± 0.055 | 1.8 ± 0.044 | 2.02 ± 0.079 | 1.91 ± 0.037 |
| SEDDSESGKVFIGRLPI [RPB2] | 3.36 ± 0.08 | 3.19 ± 0.073 | 3.31 ± 0.055 | 3.29 ± 0.043 |
| SEGFEPTFSTHAQLLLS [PRP8] | 1.96 ± 0.038 | 2.08 ± 0.037 | 1.66 ± 0.048 | 1.97 ± 0.034 |
| SEISIIDATLKEELLRD [RRP45] | 2.44 ± 0.094 | 2.22 ± 0.1 | 2.3 ± 0.099 | 2.83 ± 0.11 |
| SEKGFSKEQIHGSIIIL [YCS4] | 2.71 ± 0.12 | 2.37 ± 0.077 | 2.76 ± 0.076 | 2.73 ± 0.087 |
| SEKKDTDGADENVQIGE [SRB4] | 2.65 ± 0.12 | 3.31 ± 0.17 |  | 3.06 ± 0.18 |
| SEVGDAFIFGLQDELKE [SMC3] | 3.2 ± 0.067 | 3.31 ± 0.061 | 3.1 ± 0.057 | 3.25 ± 0.072 |

| Sequence | protein stability index (doa10∆) | protein stability index (pdr5∆) | protein stability index (san1∆) | protein stability index (ubr1∆) |
| --- | --- | --- | --- | --- |
| SEVQRTMLELLNQLDGF [RPT6] | 2.55 ± 0.1 | 2.5 ± 0.083 | 1.86 ± 0.15 | 2.51 ± 0.07 |
| SEYDRGVSTFSPEGRLF [PUP2] | 3.43 ± 0.1 | 3.28 ± 0.1 | 3.32 ± 0.096 | 3.31 ± 0.065 |
| SFDEWFNTPFANTGGQD [SNF2] | 2.8 ± 0.099 | 2.99 ± 0.12 | 3.41 ± 0.095 | 3.15 ± 0.15 |
| SFFNISPDAPKEIMDKI [SIN4] | 3.48 ± 0.11 | 3.32 ± 0.14 | 3 ± 0.13 | 3.29 ± 0.1 |
| SFKLCTLLIAIRGSNRD [YML103C/NUP188] | 1.31 ± 0.048 | 1.78 ± 0.061 | 2.01 ± 0.077 | 2.41 ± 0.046 |
| SFLDPLNYGNICEPKET [YJL039C/NUP192] | 3.33 ± 0.12 | 2.81 ± 0.085 | 3.01 ± 0.095 | 2.66 ± 0.093 |
| SFQKIPLSRINENENFG [YML103C/NUP188] | 2.88 ± 0.15 | 3.12 ± 0.097 | 2.97 ± 0.079 | 3.24 ± 0.1 |
| SFTDILKSAIRDEIAKN [RPN12] | 2.76 ± 0.1 | 2.98 ± 0.12 | 3.08 ± 0.09 | 2.89 ± 0.065 |
| SGEEKGKKVTGFKDEVL [RPS1A] | 1.39 ± 0.24 | 1.73 ± 0.22 |  | 1.61 ± 0.14 |
| SGKSNILDAICFVLGIA [SMC2] | 1.85 ± 0.07 | 1.86 ± 0.087 | 2.25 ± 0.11 | 1.82 ± 0.066 |
| SGKSNTSNDASNKKETK [ITC1] | 3.14 ± 0.076 | 3.26 ± 0.073 | 3.29 ± 0.058 | 3.18 ± 0.06 |
| SGLNRAISTGNWSLKRF [RET1] | 2.56 ± 0.07 | 2.57 ± 0.078 | 2.67 ± 0.087 | 2.41 ± 0.054 |
| SGNGSNPNTNTNSNNTP [PGD1] | 2.78 ± 0.062 | 3 ± 0.056 | 2.95 ± 0.038 | 2.87 ± 0.041 |
| SGPFKVNGVPLRRVNAR [RPL6A] | 2.67 ± 0.25 | 2.84 ± 0.2 | 2.96 ± 0.24 | 2.77 ± 0.075 |
| SGQKTNRQVMHKMGVER [SIR3] | 3.08 ± 0.21 | 3.75 ± 0.18 | 3.4 ± 0.25 | 3.27 ± 0.22 |
| SGTAATGAASNQSSFNF [YOR098C/NUP1] | 2.7 ± 0.072 | 3.01 ± 0.09 | 2.68 ± 0.12 | 3.07 ± 0.053 |
| SGTTNFMRNGLLEGLNE [UBP6] | 2.73 ± 0.21 | 2.87 ± 0.14 | 3.22 ± 0.17 | 3.45 ± 0.23 |
| SHFSLDQFITSLKCTDP [ITC1] | 2.09 ± 0.073 | 2.42 ± 0.079 | 2.35 ± 0.076 | 2.12 ± 0.1 |
| SHISASASPHLAPNMQL [SNF2] | 2.92 ± 0.041 | 2.83 ± 0.04 | 2.93 ± 0.033 | 3.1 ± 0.032 |
| SHNENKMDFSSKEGQYK [YIL149C/MLP2] | 3.27 ± 0.077 | 3.29 ± 0.07 | 3.25 ± 0.065 | 3.28 ± 0.064 |
| SHNFQNAIFQMESEEVP [PCI8] | 2.85 ± 0.059 | 3.07 ± 0.068 | 2.7 ± 0.049 | 3.07 ± 0.05 |
| SHTGLIRKYGLNICRQC [RPS29A] | 1.51 ± 0.047 | 1.58 ± 0.05 | 1.51 ± 0.093 | 1.89 ± 0.053 |
| SIDNDFSEEKAEEFDFN [YAR002W/NUP60] | 3.19 ± 0.14 | 3.02 ± 0.11 | 3.17 ± 0.092 | 3.12 ± 0.1 |
| SIIKAKLPLLNESLIPL [YML103C/NUP188] | 1.68 ± 0.06 | 2.18 ± 0.067 | 1.84 ± 0.082 | 1.99 ± 0.05 |

Reference: the supplement of paper PMC9732359
